The target of assay [1] is Trypanosoma brucei FoF1–ATP synthase complex (Trypanosoma brucei (endogenous in PCF and BSF cells)). The assay is described as follows: native gel or EMSA; high-resolution clear native electrophoresis of digitonin-lysed (4 mg/mg protein) crude mitochondrial vesicles from PCF and BSF parasites, 3 to 12% native gradient gel, 4 °C; Western blot with antibodies against p18 and Tb1. Background: In EMSA bound probe runs differently from free probe, usually more slowly.

The target is the same in assay [2]. The assay is described as follows: native gel or EMSA; blue native electrophoresis of DDM-lysed (2% PCF, 4% BSF) mitochondria, 3 to 12% native gradient gel, 4 °C; Western blot with antibodies against subunit β and Tb2; cells noninduced or with Tb1 or OSCP silenced or ablated.

From paper PMC7949148 come the findings set out here.

By stoichiometry N is commonly meant the number of molecules, sites or subunits per partner or assembly.

On to “Trypanosoma brucei FoF1–ATP synthase complex”, for which the stoichiometry N in assay [1] and in assay [2] was 2 each time.
